Measurements from US20250171562A1 (ALK ABELL, published 2025).

Target: T1, recombinant human IgE (human, UniProt P01854-1 1-428)
T1 construct: made in-house (ALK); preloaded on immobilised FcεRIα in the displacement ELISA
Assay: IgE-FcεRIα displacement ELISA
In short: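 Streptavidin-coated plates carried site-specifically biotinylated recombinant human FcεRIα, loaded with recombinant human IgE at 13 ng/ml. sdAbs in a pM–μM series were added for 1 h, and displaced IgE was washed off. Percent displacement was the signal reduction versus the no-sdAb control, giving EC50 and maximal effect.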

T1 sequence (P01854 other isoform, or with tags, fused parts or gaps): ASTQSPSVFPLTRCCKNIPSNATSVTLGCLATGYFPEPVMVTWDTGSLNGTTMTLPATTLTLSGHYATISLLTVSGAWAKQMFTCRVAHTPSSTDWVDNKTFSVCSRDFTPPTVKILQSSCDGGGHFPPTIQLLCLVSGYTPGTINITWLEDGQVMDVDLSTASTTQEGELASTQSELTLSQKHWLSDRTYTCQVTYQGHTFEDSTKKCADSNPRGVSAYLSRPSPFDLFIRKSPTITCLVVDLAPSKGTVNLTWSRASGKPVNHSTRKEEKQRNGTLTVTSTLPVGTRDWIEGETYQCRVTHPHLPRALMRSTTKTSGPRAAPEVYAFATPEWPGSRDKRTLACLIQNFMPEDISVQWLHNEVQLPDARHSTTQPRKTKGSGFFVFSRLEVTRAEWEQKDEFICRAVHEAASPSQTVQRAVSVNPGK

B1: NIgG4B1A2(RS) (Fc fusion)
chain 1: QVQLQESGGGLVQTGGSLRLSCAVHGRTFSNTGMGWFRQAPGNERQFVAIISPSGTSTYYADSVKGRFTISRDPAKNTVYLQMNSLKMDDTAVYYCAASYGSNWSTLRHQRRNEYDAWGQGTQVAVSRSGPPCPPCPAPEFLGGPSVFLFPPKPKDTLMISRTPEVTCVVVDVSQEDPEVQFNWYVDGVEVHNAKTKPREEQFNSTYRVVSVLTVLHQDWLNGKEYKCKVSNKGLPSSIEKTISKAKGQPREPQVYTLPPCQEEMTKNQVSLWCLVKGFYPSDIAVEWESNGQPENNYKTTPPVLDSDGSFFLYSRLTVDKSRWQEGNVFSCSVMHEALHNHYTQKSLSLSLGK
chain 2: EVQLLESGGGLVQPGGSLRLSCAASGFRFGNYDMAWVRQAPGKRYEWVSSIDTGGDITHYADSVKGRFTISRDNAKNTLYLQMNSLRPEDTAEYWCATDEEYALGPNEFDYYGQGTLVTVSRSGPPCPPCPAPEFLGGPSVFLFPPKPKDTLMISRTPEVTCVVVDVSQEDPEVQFNWYVDGVEVHNAKTKPREEQFNSTYRVVSVLTVLHQDWLNGKEYKCKVSNKGLPSSIEKTISKAKGQPREPQVCTLPPSQEEMTKNQVSLSCAVKGFYPSDIAVEWESNGQPENNYKTTPPVLDSDGSFFLVSRLTVDKSRWQEGNVFSCSVMHEALHNHYTQKSLSLSLGK
  Max effect: > 95%

B2: NIgG4B1A2(G4S)1 (Fc fusion)
chain 1: QVQLQESGGGLVQTGGSLRLSCAVHGRTFSNTGMGWFRQAPGNERQFVAIISPSGTSTYYADSVKGRFTISRDPAKNTVYLQMNSLKMDDTAVYYCAASYGSNWSTLRHQRRNEYDAWGQGTQVAVSGGGGSGPPCPPCPAPEFLGGPSVFLFPPKPKDTLMISRTPEVTCVVVDVSQEDPEVQFNWYVDGVEVHNAKTKPREEQFNSTYRVVSVLTVLHQDWLNGKEYKCKVSNKGLPSSIEKTISKAKGQPREPQVYTLPPCQEEMTKNQVSLWCLVKGFYPSDIAVEWESNGQPENNYKTTPPVLDSDGSFFLYSRLTVDKSRWQEGNVFSCSVMHEALHNHYTQKSLSLSLGK
chain 2: EVQLLESGGGLVQPGGSLRLSCAASGFRFGNYDMAWVRQAPGKRYEWVSSIDTGGDITHYADSVKGRFTISRDNAKNTLYLQMNSLRPEDTAEYWCATDEEYALGPNEFDYYGQGTLVTVSGGGGSGPPCPPCPAPEFLGGPSVFLFPPKPKDTLMISRTPEVTCVVVDVSQEDPEVQFNWYVDGVEVHNAKTKPREEQFNSTYRVVSVLTVLHQDWLNGKEYKCKVSNKGLPSSIEKTISKAKGQPREPQVCTLPPSQEEMTKNQVSLSCAVKGFYPSDIAVEWESNGQPENNYKTTPPVLDSDGSFFLVSRLTVDKSRWQEGNVFSCSVMHEALHNHYTQKSLSLSLGK
  Max effect: > 95%

B3: NIgG4B1A2(G4S)2 (Fc fusion)
chain 1: QVQLQESGGGLVQTGGSLRLSCAVHGRTFSNTGMGWFRQAPGNERQFVAIISPSGTSTYYADSVKGRFTISRDPAKNTVYLQMNSLKMDDTAVYYCAASYGSNWSTLRHQRRNEYDAWGQGTQVAVSGGGGSGGGGSGPPCPPCPAPEFLGGPSVFLFPPKPKDTLMISRTPEVTCVVVDVSQEDPEVQFNWYVDGVEVHNAKTKPREEQFNSTYRVVSVLTVLHQDWLNGKEYKCKVSNKGLPSSIEKTISKAKGQPREPQVYTLPPCQEEMTKNQVSLWCLVKGFYPSDIAVEWESNGQPENNYKTTPPVLDSDGSFFLYSRLTVDKSRWQEGNVFSCSVMHEALHNHYTQKSLSLSLGK
chain 2: EVQLLESGGGLVQPGGSLRLSCAASGFRFGNYDMAWVRQAPGKRYEWVSSIDTGGDITHYADSVKGRFTISRDNAKNTLYLQMNSLRPEDTAEYWCATDEEYALGPNEFDYYGQGTLVTVSGGGGSGGGGSGPPCPPCPAPEFLGGPSVFLFPPKPKDTLMISRTPEVTCVVVDVSQEDPEVQFNWYVDGVEVHNAKTKPREEQFNSTYRVVSVLTVLHQDWLNGKEYKCKVSNKGLPSSIEKTISKAKGQPREPQVCTLPPSQEEMTKNQVSLSCAVKGFYPSDIAVEWESNGQPENNYKTTPPVLDSDGSFFLVSRLTVDKSRWQEGNVFSCSVMHEALHNHYTQKSLSLSLGK
  Max effect: > 95%

B4: NIgG4B1A2(G4S)3 (Fc fusion)
chain 1: QVQLQESGGGLVQTGGSLRLSCAVHGRTFSNTGMGWFRQAPGNERQFVAIISPSGTSTYYADSVKGRFTISRDPAKNTVYLQMNSLKMDDTAVYYCAASYGSNWSTLRHQRRNEYDAWGQGTQVAVSGGGGSGGGGSGGGGSGPPCPPCPAPEFLGGPSVFLFPPKPKDTLMISRTPEVTCVVVDVSQEDPEVQFNWYVDGVEVHNAKTKPREEQFNSTYRVVSVLTVLHQDWLNGKEYKCKVSNKGLPSSIEKTISKAKGQPREPQVYTLPPCQEEMTKNQVSLWCLVKGFYPSDIAVEWESNGQPENNYKTTPPVLDSDGSFFLYSRLTVDKSRWQEGNVFSCSVMHEALHNHYTQKSLSLSLGK
chain 2: EVQLLESGGGLVQPGGSLRLSCAASGFRFGNYDMAWVRQAPGKRYEWVSSIDTGGDITHYADSVKGRFTISRDNAKNTLYLQMNSLRPEDTAEYWCATDEEYALGPNEFDYYGQGTLVTVSGGGGSGGGGSGGGGSGPPCPPCPAPEFLGGPSVFLFPPKPKDTLMISRTPEVTCVVVDVSQEDPEVQFNWYVDGVEVHNAKTKPREEQFNSTYRVVSVLTVLHQDWLNGKEYKCKVSNKGLPSSIEKTISKAKGQPREPQVCTLPPSQEEMTKNQVSLSCAVKGFYPSDIAVEWESNGQPENNYKTTPPVLDSDGSFFLVSRLTVDKSRWQEGNVFSCSVMHEALHNHYTQKSLSLSLGK
  Max effect: > 95%

B5: CIgG4B1A2(RS) (Fc fusion)
chain 1: GPPCPPCPAPEFLGGPSVFLFPPKPKDTLMISRTPEVTCVVVDVSQEDPEVQFNWYVDGVEVHNAKTKPREEQFNSTYRVVSVLTVLHQDWLNGKEYKCKVSNKGLPSSIEKTISKAKGQPREPQVYTLPPCQEEMTKNQVSLWCLVKGFYPSDIAVEWESNGQPENNYKTTPPVLDSDGSFFLYSRLTVDKSRWQEGNVFSCSVMHEALHNHYTQKSLSLSLGKRSQVQLQESGGGLVQTGGSLRLSCAVHGRTFSNTGMGWFRQAPGNERQFVAIISPSGTSTYYADSVKGRFTISRDPAKNTVYLQMNSLKMDDTAVYYCAASYGSNWSTLRHQRRNEYDAWGQGTQVAVS
chain 2: GPPCPPCPAPEFLGGPSVFLFPPKPKDTLMISRTPEVTCVVVDVSQEDPEVQFNWYVDGVEVHNAKTKPREEQFNSTYRVVSVLTVLHQDWLNGKEYKCKVSNKGLPSSIEKTISKAKGQPREPQVCTLPPSQEEMTKNQVSLSCAVKGFYPSDIAVEWESNGQPENNYKTTPPVLDSDGSFFLVSRLTVDKSRWQEGNVFSCSVMHEALHNHYTQKSLSLSLGKRSEVQLLESGGGLVQPGGSLRLSCAASGFRFGNYDMAWVRQAPGKRYEWVSSIDTGGDITHYADSVKGRFTISRDNAKNTLYLQMNSLRPEDTAEYWCATDEEYALGPNEFDYYGQGTLVTVS
  EC50: 5 nM
  Max effect: > 95%

B6: CIgG4B1A2(G4S)1 (Fc fusion)
chain 1: GPPCPPCPAPEFLGGPSVFLFPPKPKDTLMISRTPEVTCVVVDVSQEDPEVQFNWYVDGVEVHNAKTKPREEQFNSTYRVVSVLTVLHQDWLNGKEYKCKVSNKGLPSSIEKTISKAKGQPREPQVYTLPPCQEEMTKNQVSLWCLVKGFYPSDIAVEWESNGQPENNYKTTPPVLDSDGSFFLYSRLTVDKSRWQEGNVFSCSVMHEALHNHYTQKSLSLSLGKGGGGSQVQLQESGGGLVQTGGSLRLSCAVHGRTFSNTGMGWFRQAPGNERQFVAIISPSGTSTYYADSVKGRFTISRDPAKNTVYLQMNSLKMDDTAVYYCAASYGSNWSTLRHQRRNEYDAWGQGTQVAVS
chain 2: GPPCPPCPAPEFLGGPSVFLFPPKPKDTLMISRTPEVTCVVVDVSQEDPEVQFNWYVDGVEVHNAKTKPREEQFNSTYRVVSVLTVLHQDWLNGKEYKCKVSNKGLPSSIEKTISKAKGQPREPQVCTLPPSQEEMTKNQVSLSCAVKGFYPSDIAVEWESNGQPENNYKTTPPVLDSDGSFFLVSRLTVDKSRWQEGNVFSCSVMHEALHNHYTQKSLSLSLGKGGGGSEVQLLESGGGLVQPGGSLRLSCAASGFRFGNYDMAWVRQAPGKRYEWVSSIDTGGDITHYADSVKGRFTISRDNAKNTLYLQMNSLRPEDTAEYWCATDEEYALGPNEFDYYGQGTLVTVS
  EC50: 3 nM
  Max effect: > 95%

B7: CIgG4B1A2(G4S)2 (Fc fusion)
chain 1: GPPCPPCPAPEFLGGPSVFLFPPKPKDTLMISRTPEVTCVVVDVSQEDPEVQFNWYVDGVEVHNAKTKPREEQFNSTYRVVSVLTVLHQDWLNGKEYKCKVSNKGLPSSIEKTISKAKGQPREPQVYTLPPCQEEMTKNQVSLWCLVKGFYPSDIAVEWESNGQPENNYKTTPPVLDSDGSFFLYSRLTVDKSRWQEGNVFSCSVMHEALHNHYTQKSLSLSLGKGGGGSGGGGSQVQLQESGGGLVQTGGSLRLSCAVHGRTFSNTGMGWFRQAPGNERQFVAIISPSGTSTYYADSVKGRFTISRDPAKNTVYLQMNSLKMDDTAVYYCAASYGSNWSTLRHQRRNEYDAWGQGTQVAVS
chain 2: GPPCPPCPAPEFLGGPSVFLFPPKPKDTLMISRTPEVTCVVVDVSQEDPEVQFNWYVDGVEVHNAKTKPREEQFNSTYRVVSVLTVLHQDWLNGKEYKCKVSNKGLPSSIEKTISKAKGQPREPQVCTLPPSQEEMTKNQVSLSCAVKGFYPSDIAVEWESNGQPENNYKTTPPVLDSDGSFFLVSRLTVDKSRWQEGNVFSCSVMHEALHNHYTQKSLSLSLGKGGGGSGGGGSEVQLLESGGGLVQPGGSLRLSCAASGFRFGNYDMAWVRQAPGKRYEWVSSIDTGGDITHYADSVKGRFTISRDNAKNTLYLQMNSLRPEDTAEYWCATDEEYALGPNEFDYYGQGTLVTVS
  EC50: 2.7 nM
  Max effect: > 95%

B8: CIgG4B1A2(G4S)3 (Fc fusion)
chain 1: GPPCPPCPAPEFLGGPSVFLFPPKPKDTLMISRTPEVTCVVVDVSQEDPEVQFNWYVDGVEVHNAKTKPREEQFNSTYRVVSVLTVLHQDWLNGKEYKCKVSNKGLPSSIEKTISKAKGQPREPQVYTLPPCQEEMTKNQVSLWCLVKGFYPSDIAVEWESNGQPENNYKTTPPVLDSDGSFFLYSRLTVDKSRWQEGNVFSCSVMHEALHNHYTQKSLSLSLGKGGGGSGGGGSGGGGSQVQLQESGGGLVQTGGSLRLSCAVHGRTFSNTGMGWFRQAPGNERQFVAIISPSGTSTYYADSVKGRFTISRDPAKNTVYLQMNSLKMDDTAVYYCAASYGSNWSTLRHQRRNEYDAWGQGTQVAVS
chain 2: GPPCPPCPAPEFLGGPSVFLFPPKPKDTLMISRTPEVTCVVVDVSQEDPEVQFNWYVDGVEVHNAKTKPREEQFNSTYRVVSVLTVLHQDWLNGKEYKCKVSNKGLPSSIEKTISKAKGQPREPQVCTLPPSQEEMTKNQVSLSCAVKGFYPSDIAVEWESNGQPENNYKTTPPVLDSDGSFFLVSRLTVDKSRWQEGNVFSCSVMHEALHNHYTQKSLSLSLGKGGGGSGGGGSGGGGSEVQLLESGGGLVQPGGSLRLSCAASGFRFGNYDMAWVRQAPGKRYEWVSSIDTGGDITHYADSVKGRFTISRDNAKNTLYLQMNSLRPEDTAEYWCATDEEYALGPNEFDYYGQGTLVTVS
  EC50: 2.5 nM
  Max effect: > 95%
